Assay results reported in patent US20210206873A1.

Experiments:
[1] = molecular target: human Toll-like Receptor 9 (TLR9) (human) (UniProt Q9NR96); assay: intracellular flow, B cells; PE isotype control, no block
[2] = molecular target: human Toll-like Receptor 9 (TLR9) (human) (UniProt Q9NR96); assay: intracellular flow, pDCs; PE isotype control, no block

Chain of UniProt Q9NR96 (Q9NR96 26-1032): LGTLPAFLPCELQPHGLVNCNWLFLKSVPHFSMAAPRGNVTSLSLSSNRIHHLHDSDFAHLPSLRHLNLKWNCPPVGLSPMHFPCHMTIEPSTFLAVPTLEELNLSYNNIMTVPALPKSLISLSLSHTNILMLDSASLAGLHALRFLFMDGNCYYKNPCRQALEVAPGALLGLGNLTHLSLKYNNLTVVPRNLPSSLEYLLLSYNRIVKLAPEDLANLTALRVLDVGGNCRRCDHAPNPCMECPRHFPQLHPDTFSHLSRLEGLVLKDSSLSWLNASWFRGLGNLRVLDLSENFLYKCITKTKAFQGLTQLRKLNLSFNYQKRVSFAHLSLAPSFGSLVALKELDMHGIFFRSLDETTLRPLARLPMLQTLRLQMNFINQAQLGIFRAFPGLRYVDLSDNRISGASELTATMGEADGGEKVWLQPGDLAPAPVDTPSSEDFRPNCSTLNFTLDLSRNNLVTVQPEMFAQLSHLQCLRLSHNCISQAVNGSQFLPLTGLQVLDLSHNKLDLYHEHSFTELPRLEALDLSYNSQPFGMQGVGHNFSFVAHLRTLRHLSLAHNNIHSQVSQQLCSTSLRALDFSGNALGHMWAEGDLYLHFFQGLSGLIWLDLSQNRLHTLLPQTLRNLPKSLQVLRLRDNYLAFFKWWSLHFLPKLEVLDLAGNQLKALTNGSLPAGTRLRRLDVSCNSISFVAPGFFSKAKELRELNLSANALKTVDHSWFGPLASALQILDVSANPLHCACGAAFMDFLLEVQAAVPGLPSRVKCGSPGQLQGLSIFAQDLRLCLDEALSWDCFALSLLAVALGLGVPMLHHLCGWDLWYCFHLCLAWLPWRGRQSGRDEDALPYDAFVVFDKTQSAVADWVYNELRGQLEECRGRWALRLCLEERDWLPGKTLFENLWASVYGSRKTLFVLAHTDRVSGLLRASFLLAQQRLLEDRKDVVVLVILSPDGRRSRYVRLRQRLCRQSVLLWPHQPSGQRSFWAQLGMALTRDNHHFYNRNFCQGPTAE

MFI [1] | MFI [2] | Substance
142 | 490 | Rat IgG2a isotype control (antibody)
52 | 138 | Rat IgG2b isotype control (antibody)
